Test results published in publication PMC5493779, “Recognition of a glycosylation substrate by the O-GlcNAc transferase TPR repeats” (Open Biology, 2017).
Where no end group is shown, it is not given here.

T1: His6-hOGT (312-1031), wild type (human) (UniProt O15294)
T1 sequence: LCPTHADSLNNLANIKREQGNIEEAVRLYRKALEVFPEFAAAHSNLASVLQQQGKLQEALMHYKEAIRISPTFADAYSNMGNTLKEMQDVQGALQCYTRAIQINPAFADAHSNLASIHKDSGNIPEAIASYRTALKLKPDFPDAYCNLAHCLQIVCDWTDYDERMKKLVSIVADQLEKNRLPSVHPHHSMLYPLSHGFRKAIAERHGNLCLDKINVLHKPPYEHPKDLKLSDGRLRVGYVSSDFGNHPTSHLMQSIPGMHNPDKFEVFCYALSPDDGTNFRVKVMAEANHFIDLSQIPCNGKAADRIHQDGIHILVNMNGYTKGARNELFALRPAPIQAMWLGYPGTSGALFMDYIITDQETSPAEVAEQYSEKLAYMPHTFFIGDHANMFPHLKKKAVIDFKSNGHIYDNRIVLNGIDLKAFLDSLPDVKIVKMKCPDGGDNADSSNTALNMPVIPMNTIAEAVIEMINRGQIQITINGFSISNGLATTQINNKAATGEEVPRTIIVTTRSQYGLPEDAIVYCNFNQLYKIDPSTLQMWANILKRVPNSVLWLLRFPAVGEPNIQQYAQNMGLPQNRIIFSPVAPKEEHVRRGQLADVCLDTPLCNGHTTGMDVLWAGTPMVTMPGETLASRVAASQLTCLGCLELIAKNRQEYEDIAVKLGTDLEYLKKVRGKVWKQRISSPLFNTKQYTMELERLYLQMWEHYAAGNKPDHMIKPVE

T2: human O-GlcNAc transferase, truncated (315-1031), as it stands in the substrate:OGT fusion proteins (human, UniProt O15294-3 315-1031)
T2 construct: human O-GlcNAc transferase (OGT), codon-optimised, residues 315-1031 starting at Thr315; holds TPR repeats and the catalytic domain; In the crystals this stretch is joined on one chain to the substrate peptide (m2 or m3) by a GGG linker; the whole chains are m4 and m5; also called hOGT; source: E. coli BL21 (DE3) pLysS, purified (Ni-NTA, anion exchange, gel filtration) as part of the fusion …
T2 sequence (looked up): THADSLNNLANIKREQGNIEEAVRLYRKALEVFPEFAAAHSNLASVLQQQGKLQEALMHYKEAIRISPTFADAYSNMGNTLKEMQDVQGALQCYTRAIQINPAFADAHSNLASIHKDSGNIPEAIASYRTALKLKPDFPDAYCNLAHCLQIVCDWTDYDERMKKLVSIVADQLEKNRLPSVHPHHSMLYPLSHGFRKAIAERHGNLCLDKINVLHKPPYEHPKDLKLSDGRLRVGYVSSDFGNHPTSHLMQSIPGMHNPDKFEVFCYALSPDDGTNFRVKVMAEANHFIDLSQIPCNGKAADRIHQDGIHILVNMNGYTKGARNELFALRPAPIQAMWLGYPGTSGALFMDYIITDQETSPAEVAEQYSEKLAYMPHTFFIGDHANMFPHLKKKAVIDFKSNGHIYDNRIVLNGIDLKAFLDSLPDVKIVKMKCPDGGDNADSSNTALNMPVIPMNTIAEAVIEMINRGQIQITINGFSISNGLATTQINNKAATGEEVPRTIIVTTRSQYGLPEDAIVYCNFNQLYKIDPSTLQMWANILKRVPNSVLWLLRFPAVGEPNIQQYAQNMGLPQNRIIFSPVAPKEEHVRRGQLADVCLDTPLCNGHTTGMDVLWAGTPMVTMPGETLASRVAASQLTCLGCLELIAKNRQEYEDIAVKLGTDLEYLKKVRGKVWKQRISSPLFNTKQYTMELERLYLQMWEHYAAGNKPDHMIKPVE

B1: free TAB1 peptide … (peptide)
peptide: KKPVSVPYSSAQSTSKTSVTLSL
B2: TAB1 (7-409) protein (domain or fragment)
chain: SLLQSEQQPSWTDDLPLCHLSGVGSASNRSYSADGKGTESHPPEDSWLKFRSENNCFLYGVFNGYDGNRVTNFVAQRLSAELLLGQLNAEHAEADVRRVLLQAFDVVERSFLESIDDALAEKASLQSQLPEGVPQHQLPPQYQKILERLKTLEREISGGAMAVVAVLLNNKLYVANVGTNRALLCKSTVDGLQVTQLNVDHTTENEDELFRLSQLGLDAGKIKQVGIICGQESTRRIGDYKVKYGYTDIDLLSAAKSKPIIAEPEIHGAQPLDGVTGFLVLMSEGLYKALEAAHGPGQANQEIAAMIDTEFAKQTSLDAVAQAVVDRVKRIHSDTFASGGERARFCPRHEDMTLLVRNFGYPLGEMSQPTPSPAPAAGGRVYPVSVPYSSAQSTSKTSVTLSL
B3: 18-mer HCF1PRO repeat peptide (PPCETHETGTTNTATTAT) (peptide)
peptide: PPCETHETGTTNTATTAT
notes: host cell factor 1 (HCF1), one repeat of the proteolytic processing domain; In the crystal its C-terminus is joined by a GGG linker to Thr315 of OGT on one chain; the whole chain is m4; The PreScission site of the vector was replaced by the peptide and linker; also called HCF1 peptide; host cell factor 1 PPD repeat; source: E. coli BL21 (DE3) pLysS, purified (Ni-NTA, anion exchange, gel …)
B4: 18-mer TAB1 peptide derived from the S395 glycosylation site (VPYSSAQSTSKTSVTLSL) (peptide)
peptide: VPYSSAQSTSKTSVTLSL
modifications: also: O-GlcNAc on Ser395
notes: In the crystal its C-terminus is joined by a GGG linker to Thr315 of OGT on one chain; the whole chain is m5; Extra density near Ser396 and Ser399 hints at further glycosylation; also called TAB1 C-terminal domain; source: E. coli BL21 (DE3) pLysS, purified (Ni-NTA, anion exchange, gel filtration) as part of the fusion protein

Columns and labels:
[1] = target: T1, His6-hOGT (312-1031), wild type (human)
[2] = target: His6-hOGT (312-1031) 5N5A quintuple mutant (human) (UniProt O15294)
[3] = target: T2, human O-GlcNAc transferase, truncated …; assay: crystal structure; substrate peptide fused through a 3xGly linker to the N-terminus of OGT 315-1031 (one chain); about 10 mg/ml protein with 5 mM UDP, sitting drop, 0.1 M Tris pH 8.5; one molecule per asymmetric unit; details: both partners purified

Binder | binding result [3] | further results
B1 | – | KM of the TAB1 peptide in steady-state kinetics of O-GlcNAc transfer (50 nM hOGT, 50 µM UDP-GlcNAc, UDP formation by fluorescence) [1]: 42 µM
B2 | – | reduction of glycosyltransferase activity on TAB1 (7-409) against WT OGT, western blot with an O-GlcNAc Ser395 specific antibody, quantified [2]: 50%
B3 | binds | –
B4 | binds | –
